# What was measured:
# HLA-B*51:01 [1] = assay: IEDB peptide-MHC binding, purified MHC/direct/fluorescence; filed as Kd, often an IC50 or EC50 that approximates it; ≥ and ≤ were set here for values at or beyond the usual limits of such assays; details: source organism: Yellow fever virus
# HLA-B*35:01 = assay: as above; details: source organism: Yellow fever virus
# HLA-C*03:03 = assay: as above
# HLA-A*02:01 [2] = assay: IEDB peptide-MHC binding, purified MHC/competitive/fluorescence; filed as Kd, often an IC50 or EC50 that approximates it; ≥ and ≤ were set here for values at or beyond the usual limits of such assays
# HLA-B*27:05 = assay: IEDB peptide-MHC binding, purified MHC/direct/fluorescence; filed as Kd, often an IC50 or EC50 that approximates it; ≥ and ≤ were set here for values at or beyond the usual limits of such assays
# HLA-A*01:01 [3] = assay: as above
# HLA-B*44:02 [4] = assay: as above; details: source organism: West Nile virus
# HLA-A*11:01 = assay: as above
# HLA-A*31:01 [5] = assay: as above
# HLA-B*58:01 [6] = assay: as above
# HLA-A*03:01 [7] = assay: as above
# HLA-B*48:01 = assay: as above; details: source organism: West Nile virus
# HLA-B*08:02 = assay: as above; details: source organism: West Nile virus strain PTRoxo
# HLA-B*57:01 [8] = assay: as above; details: source organism: West Nile virus
# HLA-B*40:01 = assay: as above
# HLA-B*18:01 [9] = assay: as above; details: source organism: West Nile virus
# HLA-A*31:01 [10] = assay: IEDB peptide-MHC binding, purified MHC/competitive/fluorescence; filed as Kd, often an IC50 or EC50 that approximates it; ≥ and ≤ were set here for values at or beyond the usual limits of such assays
# HLA-A*69:01 = assay: IEDB peptide-MHC binding, purified MHC/direct/fluorescence; filed as Kd, often an IC50 or EC50 that approximates it; ≥ and ≤ were set here for values at or beyond the usual limits of such assays; details: source organism: Escherichia coli
# HLA-A*02:01 [11] = assay: as above; details: source organism: Escherichia coli
# HLA-B*15:01 [12] = assay: as above
# HLA-A*26:01 [13] = assay: as above; details: source organism: Escherichia coli
# HLA-B*07:02 = assay: as above; details: source organism: Escherichia coli
# HLA-B*08:01 = assay: as above; details: source organism: Escherichia coli
# HLA-A*24:03 = assay: as above
# HLA-A*02:06 = assay: IEDB peptide-MHC binding, purified MHC/competitive/fluorescence; filed as Kd, often an IC50 or EC50 that approximates it; ≥ and ≤ were set here for values at or beyond the usual limits of such assays; details: source organism: Escherichia coli
# HLA-A*02:11 = assay: as above; details: source organism: Escherichia coli
# HLA-A*02:12 = assay: as above; details: source organism: Escherichia coli
# HLA-A*02:03 = assay: as above; details: source organism: Escherichia coli
# HLA-B*51:01 [14] = assay: IEDB peptide-MHC binding, purified MHC/competitive/radioactivity; filed as Kd, often an IC50 or EC50 that approximates it; ≥ and ≤ were set here for values at or beyond the usual limits of such assays; details: source organism: Dengue virus 3 Martinique/1243/1999
# HLA-A*01:01 [15] = assay: as above; details: source organism: Dengue virus 3 Martinique/1243/1999
# HLA-B*58:01 [16] = assay: as above
# HLA-C*06:02 = assay: IEDB peptide-MHC binding, purified MHC/direct/fluorescence; filed as Kd, often an IC50 or EC50 that approximates it; ≥ and ≤ were set here for values at or beyond the usual limits of such assays
# HLA-B*44:03 = assay: IEDB peptide-MHC binding, purified MHC/competitive/radioactivity; filed as Kd, often an IC50 or EC50 that approximates it; ≥ and ≤ were set here for values at or beyond the usual limits of such assays; details: source organism: Dengue virus 3 Sri Lanka/1266/2000
# HLA-B*44:02 [17] = assay: as above; details: source organism: Dengue virus 3 Sri Lanka/1266/2000
# HLA-B*53:01 = assay: as above; details: source organism: Dengue virus 3 Sri Lanka/1266/2000
# HLA-A*03:01 [18] = assay: IEDB peptide-MHC binding, purified MHC/competitive/fluorescence; filed as Kd, often an IC50 or EC50 that approximates it; ≥ and ≤ were set here for values at or beyond the usual limits of such assays
# HLA-B*46:01 [19] = assay: IEDB peptide-MHC binding, purified MHC/direct/fluorescence; filed as Kd, often an IC50 or EC50 that approximates it; ≥ and ≤ were set here for values at or beyond the usual limits of such assays; details: source organism: Yellow fever virus
# HLA-B*39:01 = assay: IEDB peptide-MHC binding, purified MHC/competitive/fluorescence; filed as Kd, often an IC50 or EC50 that approximates it; ≥ and ≤ were set here for values at or beyond the usual limits of such assays; details: source organism: Escherichia coli
# HLA-A*26:01 [20] = assay: as above
# HLA-C*15:02 = assay: IEDB peptide-MHC binding, purified MHC/direct/fluorescence; filed as Kd, often an IC50 or EC50 that approximates it; ≥ and ≤ were set here for values at or beyond the usual limits of such assays; details: source organism: Pan troglodytes
# HLA-C*14:02 = assay: as above; details: source organism: Pan troglodytes
# HLA-B*15:01 [21] = assay: IEDB peptide-MHC binding, purified MHC/competitive/fluorescence; filed as Kd, often an IC50 or EC50 that approximates it; ≥ and ≤ were set here for values at or beyond the usual limits of such assays; details: source organism: Pan troglodytes
# HLA-B*46:01 [22] = assay: as above; details: source organism: Pan troglodytes
# HLA-B*27:03 = assay: as above; details: source organism: Pan troglodytes
# HLA-B*57:01 [23] = assay: as above; details: source organism: Pan troglodytes
# HLA-B*18:01 [24] = assay: as above; details: source organism: Pan troglodytes
# [25] = source organism: Yellow fever virus
# [26] = source organism: Vaccinia virus WR
# [27] = source organism: West Nile virus
# [28] = source organism: Mammarenavirus juninense
# [29] = source organism: Escherichia coli
# [30] = source organism: Escherichia coli E22
# [31] = source organism: Pan troglodytes
sequence,measurement,setting,value
AATIRVLAL,Kd,HLA-B*51:01 [1],≥ 20 µM
same,Kd,HLA-B*35:01,≥ 20 µM
same,Kd,HLA-C*03:03; [25],9 nM
GLNDYLHSV,Kd,HLA-C*03:03; [26],≥ 20000 nM
same,Kd,HLA-A*02:01 [2]; [26],1.6 nM
ILRNPGYAL,Kd,HLA-B*27:05; [27],≥ 20 µM
same,Kd,HLA-A*01:01 [3]; [27],≥ 20 µM
same,Kd,HLA-B*44:02 [4],≥ 20 µM
same,Kd,HLA-A*11:01; [27],≥ 20 µM
same,Kd,HLA-A*31:01 [5]; [27],≥ 20000 nM
same,Kd,HLA-B*58:01 [6]; [27],≥ 20 µM
same,Kd,HLA-A*03:01 [7]; [27],≥ 20000 nM
same,Kd,HLA-B*48:01,≥ 20 µM
same,Kd,HLA-B*08:02,≥ 20 µM
same,Kd,HLA-B*57:01 [8],≥ 20 µM
same,Kd,HLA-C*03:03; [27],157 nM
same,Kd,HLA-B*40:01; [27],≥ 20 µM
same,Kd,HLA-B*18:01 [9],≥ 20 µM
KLFDLHGRR,Kd,HLA-A*03:01 [7]; [28],241 nM
same,Kd,HLA-A*31:01 [10]; [28],11.1 nM
KVLCPYMPK,Kd,HLA-A*11:01; [27],0.0037 µM
same,Kd,HLA-A*03:01 [7]; [27],562 nM
same,Kd,HLA-A*31:01 [10]; source organism: Japanese encephalitis virus,60.5 nM
LMQWWSDYV,Kd,HLA-B*27:05; [29],≥ 20 µM
same,Kd,HLA-A*01:01 [3]; [29],≥ 20 µM
same,Kd,HLA-A*11:01; [29],≥ 20 µM
same,Kd,HLA-A*69:01,4.76 nM
same,Kd,HLA-A*31:01 [5]; [29],562 nM
same,Kd,HLA-A*02:01 [11],5.74 nM
same,Kd,HLA-B*15:01 [12]; [29],234 nM
same,Kd,HLA-B*58:01 [6]; [29],≥ 20 µM
same,Kd,HLA-A*03:01 [7]; [29],≥ 20000 nM
same,Kd,HLA-A*26:01 [13],343 nM
same,Kd,HLA-B*07:02,≥ 20 µM
same,Kd,HLA-B*08:01,≥ 20 µM
same,Kd,HLA-A*24:03; [29],≥ 20000 nM
same,Kd,HLA-B*40:01; [29],≥ 20 µM
same,Kd,HLA-A*02:06,2.85 nM
same,Kd,HLA-A*02:11,≤ 0.1 nM
same,Kd,HLA-A*02:12,≤ 0.1 nM
same,Kd,HLA-A*02:03,≤ 0.1 nM
LTAAVLLLI,Kd,HLA-B*51:01 [14],647 nM
same,Kd,HLA-A*01:01 [15],≥ 78.1 µM
same,Kd,HLA-B*58:01 [16]; source organism: Dengue virus 3 Martinique/1243/1999,11.3 nM
LYIEILRLL,Kd,HLA-C*06:02; source organism: Mycobacterium tuberculosis C,44 nM
same,Kd,HLA-A*24:03; source organism: Mycobacterium avium 104,7 nM
MEITAEWLW,Kd,HLA-B*44:03,9.15 nM
same,Kd,HLA-B*44:02 [17],4.63 nM
same,Kd,HLA-B*58:01 [16]; source organism: Dengue virus 3 Sri Lanka/1266/2000,5.39 nM
same,Kd,HLA-B*53:01,32.1 nM
MFIIKYFKK,Kd,HLA-A*31:01 [10]; [30],246 nM
same,Kd,HLA-A*03:01 [18]; [30],≥ 20 µM
RSHAAIGAY,Kd,HLA-A*11:01; [25],≥ 20 µM
same,Kd,HLA-B*15:01 [12]; [25],87 nM
same,Kd,HLA-B*46:01 [19],≥ 20 µM
same,Kd,HLA-A*31:01 [10]; [25],≥ 20000 nM
YIVGYYSAL,Kd,HLA-C*03:03; source organism: Escherichia coli B171,≤ 1 nM
same,Kd,HLA-B*39:01,87.1 nM
same,Kd,HLA-A*02:01 [2]; [29],1.7 nM
same,Kd,HLA-A*26:01 [20]; [29],232 nM
YYFSYPLFV,Kd,HLA-C*15:02,771 nM
same,Kd,HLA-C*06:02; [31],6 nM
same,Kd,HLA-C*14:02,≤ 1 nM
same,Kd,HLA-A*02:01 [2]; [31],130 nM
same,Kd,HLA-B*15:01 [21],≥ 20 µM
same,Kd,HLA-A*03:01 [18]; [31],≥ 20 µM
same,Kd,HLA-A*26:01 [20]; [31],≥ 20000 nM
same,Kd,HLA-B*46:01 [22],≥ 20 µM
same,Kd,HLA-B*27:03,≥ 20 µM
same,Kd,HLA-B*57:01 [23],≥ 20 µM
same,Kd,HLA-B*18:01 [24],≥ 20 µM
